Assay results: patent US20250339531A1, “DUX4 POLYPEPTIDES AND NUCLEIC ACIDS FOR TREATING INFLAMMATORY AND AUTOIMMUNE CONDITIONS” (Fred Hutchinson Cancer Center, priority 2021, published 2025)

B1: Q00325 (protein, UniProt Q00325 1-362, looked up)
chain: MFSSVAHLARANPFNTPHLQLVHDGLGDLRSSSPGPTGQPRRPRNLAAAAVEEQYSCDYGSGRFFILCGLGGIISCGTTHTALVPLDLVKCRMQVDPQKYKGIFNGFSVTLKEDGVRGLAKGWAPTFLGYSMQGLCKFGFYEVFKVLYSNMLGEENTYLWRTSLYLAASASAEFFADIALAPMEAAKVRIQTQPGYANTLRDAAPKMYKEEGLKAFYKGVAPLWMRQIPYTMMKFACFERTVEALYKFVVPKPRSECSKPEQLVVTFVAGYIAGVFCAIVSHPADSVVSVLNKEKGSSASLVLKRLGFKGVWKGLFARIIMIGTLTALQWFIYDSVKVYFRLPRPPPPEMPESLKKKLGLTQ
modifications: full-length
B2: Q96MG2 (protein, UniProt Q96MG2 1-331, looked up)
chain: MSMTTRAWEELDGGLGSCQALEDHSALAETQEDRASATPRLADSGSVPHDSQVAEGPSVDTRPKKMEKEPAARGTPGTGKERLKAGASPRSVPARKKAQTAPPLQPPPPPPALSEELPWGDLSLNKCLVLASLVALLGSAFQLCRDAVPGEAALQARVPEPWVPPSSAPREPSSPLPKFEAQAPPSAPPAPRAEAEVRPKIPGSREAAENDEEEPGEATGEAVREDRVTLADRGPKERPRREGKPRKEKPRKEERPKKERPRKEERPRAAREPREALPQRWESREGGHRPWARDSRDAEPRKKQAWVSPRRPDEEQRPGSRQKLRAGKGRD
modifications: full-length
B3: P05141 (protein, UniProt P05141 1-298, looked up)
chain: MTDAAVSFAKDFLAGGVAAAISKTAVAPIERVKLLLQVQHASKQITADKQYKGIIDCVVRIPKEQGVLSFWRGNLANVIRYFPTQALNFAFKDKYKQIFLGGVDKRTQFWLYFAGNLASGGAAGATSLCFVYPLDFARTRLAADVGKAGAEREFRGLGDCLVKIYKSDGIKGLYQGFNVSVQGIIIYRAAYFGIYDTAKGMLPDPKNTHIVISWMIAQTVTAVAGLTSYPFDTVRRRMMMQSGRKGTDIMYTGTLDCWRKIARDEGGKAFFKGAWSNVLRGMGGAFVLVLYDEIKKYT
modifications: full-length
B4: P13674 (protein, UniProt P13674 1-534, looked up)
chain: MIWYILIIGILLPQSLAHPGFFTSIGQMTDLIHTEKDLVTSLKDYIKAEEDKLEQIKKWAEKLDRLTSTATKDPEGFVGHPVNAFKLMKRLNTEWSELENLVLKDMSDGFISNLTIQRQYFPNDEDQVGAAKALLRLQDTYNLDTDTISKGNLPGVKHKSFLTAEDCFELGKVAYTEADYYHTELWMEQALRQLDEGEISTIDKVSVLDYLSYAVYQQGDLDKALLLTKKLLELDPEHQRANGNLKYFEYIMAKEKDVNKSASDDQSDQKTTPKKKGVAVDYLPERQKYEMLCRGEGIKMTPRRQKKLFCRYHDGNRNPKFILAPAKQEDEWDKPRIIRFHDIISDAEIEIVKDLAKPRLRRATISNPITGDLETVHYRISKSAWLSGYENPVVSRINMRIQDLTGLDVSTAEELQVANYGVGGQYEPHFDFARKDEPDAFKELGTGNRIATWLFYMSDVSAGGATVFPEVGASVWPKKGTAVFWYNLFASGEGDYSTRHAACPVLVGNKWVSNKWLHERGQEFRRPCTLSELE
modifications: full-length
B5: O43175 (protein, UniProt O43175 1-533, looked up)
chain: MAFANLRKVLISDSLDPCCRKILQDGGLQVVEKQNLSKEELIAELQDCEGLIVRSATKVTADVINAAEKLQVVGRAGTGVDNVDLEAATRKGILVMNTPNGNSLSAAELTCGMIMCLARQIPQATASMKDGKWERKKFMGTELNGKTLGILGLGRIGREVATRMQSFGMKTIGYDPIISPEVSASFGVQQLPLEEIWPLCDFITVHTPLLPSTTGLLNDNTFAQCKKGVRVVNCARGGIVDEGALLRALQSGQCAGAALDVFTEEPPRDRALVDHENVISCPHLGASTKEAQSRCGEEIAVQFVDMVKGKSLTGVVNAQALTSAFSPHTKPWIGLAEALGTLMRAWAGSPKGTIQVITQGTSLKNAGNCLSPAVIVGLLKEASKQADVNLVNAKLLVKEAGLNVTTSHSPAAPGEQGFGECLLAVALAGAPYQAVGLVQGTTPVLQGLNGAVFRPEVPLRRDLPLLLFRTQTSDPAMLPTMIGLLAEAGVRLLSYQTSLVSDGETWHVMGISSLLPSLEAWKQHVTEAFQFHF
modifications: full-length
B6: P25705 (protein, UniProt P25705 1-553, looked up)
chain: MLSVRVAAAVVRALPRRAGLVSRNALGSSFIAARNFHASNTHLQKTGTAEMSSILEERILGADTSVDLEETGRVLSIGDGIARVHGLRNVQAEEMVEFSSGLKGMSLNLEPDNVGVVVFGNDKLIKEGDIVKRTGAIVDVPVGEELLGRVVDALGNAIDGKGPIGSKTRRRVGLKAPGIIPRISVREPMQTGIKAVDSLVPIGRGQRELIIGDRQTGKTSIAIDTIINQKRFNDGSDEKKKLYCIYVAIGQKRSTVAQLVKRLTDADAMKYTIVVSATASDAAPLQYLAPYSGCSMGEYFRDNGKHALIIYDDLSKQAVAYRQMSLLLRRPPGREAYPGDVFYLHSRLLERAAKMNDAFGGGSLTALPVIETQAGDVSAYIPTNVISITDGQIFLETELFYKGIRPAINVGLSVSRVGSAAQTRAMKQVAGTMKLELAQYREVAAFAQFGSDLDAATQQLLSRGVRLTELLKQGQYSPMAIEEQVAVIYAGVRGYLDKLEPSKITKFENAFLSHVVSQHQALLGTIRADGKISEQSDAKLKEIVTNFLAGFEA
modifications: full-length
B7: P04843 (protein, UniProt P04843 1-607, looked up)
chain: MEAPAAGLFLLLLLGTWAPAPGSASSEAPPLINEDVKRTVDLSSHLAKVTAEVVLAHLGGGSTSRATSFLLALEPELEARLAHLGVQVKGEDEEENNLEVRETKIKGKSGRFFTVKLPVALDPGAKISVIVETVYTHVLHPYPTQITQSEKQFVVFEGNHYFYSPYPTKTQTMRVKLASRNVESYTKLGNPTRSEDLLDYGPFRDVPAYSQDTFKVHYENNSPFLTITSMTRVIEVSHWGNIAVEENVDLKHTGAVLKGPFSRYDYQRQPDSGISSIRSFKTILPAAAQDVYYRDEIGNVSTSHLLILDDSVEMEIRPRFPLFGGWKTHYIVGYNLPSYEYLYNLGDQYALKMRFVDHVFDEQVIDSLTVKIILPEGAKNIEIDSPYEISRAPDELHYTYLDTFGRPVIVAYKKNLVEQHIQDIVVHYTFNKVLMLQEPLLVVAAFYILFFTVIIYVRLDFSITKDPAAEARMKVACITEQVLTLVNKRIGLYRHFDETVNRYKQSRDISTLNSGKKSLETEHKALTSEIALLQSRLKTEGSDLCDRVSEMQKLDAQVKELVLKSAVEAERLVAGKLKKDTYIENEKLISGKRQELVTKIDHILDAL
modifications: full-length
B8: A0A087WW87 (protein, UniProt A0A087WW87 1-121, looked up)
chain: MRLPAQLLGLLMLWVPGSSEDIVMTQTPLSLPVTPGEPASISCRSSQSLLDSDDGNTYLDWYLQKPGQSPQLLIYTLSYRASGVPDRFSGSGSGTDFTLKISRVEAEDVGVYYCMQRIEFP
modifications: full-length
B9: O95782 (protein, UniProt O95782 1-977, looked up)
chain: MPAVSKGDGMRGLAVFISDIRNCKSKEAEIKRINKELANIRSKFKGDKALDGYSKKKYVCKLLFIFLLGHDIDFGHMEAVNLLSSNKYTEKQIGYLFISVLVNSNSELIRLINNAIKNDLASRNPTFMCLALHCIANVGSREMGEAFAADIPRILVAGDSMDSVKQSAALCLLRLYKASPDLVPMGEWTARVVHLLNDQHMGVVTAAVSLITCLCKKNPDDFKTCVSLAVSRLSRIVSSASTDLQDYTYYFVPAPWLSVKLLRLLQCYPPPEDAAVKGRLVECLETVLNKAQEPPKSKKVQHSNAKNAILFETISLIIHYDSEPNLLVRACNQLGQFLQHRETNLRYLALESMCTLASSEFSHEAVKTHIDTVINALKTERDVSVRQRAADLLYAMCDRSNAKQIVSEMLRYLETADYAIREEIVLKVAILAEKYAVDYSWYVDTILNLIRIAGDYVSEEVWYRVLQIVTNRDDVQGYAAKTVFEALQAPACHENMVKVGGYILGEFGNLIAGDPRSSPPVQFSLLHSKFHLCSVATRALLLSTYIKFINLFPETKATIQGVLRAGSQLRNADVELQQRAVEYLTLSSVASTDVLATVLEEMPPFPERESSILAKLKRKKGPGAGSALDDGRRDPSSNDINGGMEPTPSTVSTPSPSADLLGLRAAPPPAAPPASAGAGNLLVDVFDGPAAQPSLGPTPEEAFLSELEPPAPESPMALLADPAPAADPGPEDIGPPIPEADELLNKFVCKNNGVLFENQLLQIGVKSEFRQNLGRMYLFYGNKTSVQFQNFSPTVVHPGDLQTQLAVQTKRVAAQVDGGAQVQQVLNIECLRDFLTPPLLSVRFRYGGAPQALTLKLPVTINKFFQPTEMAAQDFFQRWKQLSLPQQEAQKIFKANHPMDAEVTKAKLLGFGSALLDNVDPNPENFVGAGIIQTKALQVGCLLRLEPNAQAQMYRLTLRTSKEPVSRHLCELLAQQF
modifications: full-length
B10: P06702 (protein, UniProt P06702 1-114, looked up)
chain: MTCKMSQLERNIETIINTFHQYSVKLGHPDTLNQGEFKELVRKDLQNFLKKENKNEKVIEHIMEDLDTNADKQLSFEEFIMLMARLTWASHEKMHEGDEGPGHHHKPGLGEGTP
modifications: full-length

Tested on: proteins that co-immunoprecipitated with DUX4-CTD constructs expressed in MB135 myoblasts
Experiment: LC-MS of proteins co-immunoprecipitated with DUX4-CTD (Table 1) and western validation
Format: binding, human
Parameters: key to 4. mL1dL2 + Dox + IFNG / 4. + IFNG mix / 4. longCTD + Dox + IFNG / 3. + IFNg + Dox longCTD / 3. + Dox longCTD / 3. + IFNG longCTD: peptide-spectrum matches (PSMs) per protein
Settings: for 4. longCTD + Dox + IFNG: LC-MS counts of the listed protein co-immunoprecipitated with DUX4-CTD bait longCTD, experiment 4, Dox + IFNG; for 3. + IFNg + Dox longCTD: experiment 3, IFNg + Dox; for SUM of PSMS: sum over all samples; for 3. + Dox longCTD: experiment 3, Dox only
How it was run: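 Two independent experiments compared uninduced, doxycycline and doxycycline+IFNG MB135iDUX4-CTD (plus MB135iDUX4mL1dL2) myoblasts. Anti-FLAG pulldowns (3 h, 4 °C) were eluted in LDS buffer for western validation or with FLAG peptide for trypsin digestion and Orbitrap LC-MS; hits needed ≥2 PSMs in both experiments, ranked by total PSMs.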

| Molecule | 4. longCTD + Dox + IFNG | 3. + IFNg + Dox longCTD (bait longCTD) | SUM of PSMS | 3. + Dox longCTD (bait longCTD) | 3. + IFNG longCTD (bait longCTD, experiment 3, IFNG only, no doxycycline (bait at background level)) |
| --- | --- | --- | --- | --- | --- |
| B1 | 2 | 1 | 8 |  |  |
| B2 | 3 | 10 | 18 | 4 |  |
| B3 | 6 | 3 | 9 |  |  |
| B4 | 9 | 5 | 45 | 3 |  |
| B5 | 1 | 3 | 6 | 1 |  |
| B6 | 4 | 2 | 17 | 1 |  |
| B7 | 2 | 14 | 30 | 4 | 1 |
| B8 | 5 | 2 | 15 | 2 |  |
| B9 | 2 | 31 | 48 | 10 |  |
| B10 |  | 1 | 4 | 1 |  |
